Drawing on patent publication US20210238298A1, this text covers IC50 (read off the curve) for 2 substances.

The target in this experiment is CD86 mutant 1040 conjugated to an anti-CD40 antibody as part of a bispecific molecule (human). The experiment in a line: inhibition ELISA: CD86 mutant 1040 on an anti-CD40 antibody pre-incubated with the soluble CTLA-4 in a dilution series, mixture added to coated human CTLA-4 (the competitor). On the technique in general: ELISA stands for enzyme-linked immunosorbent assay.
Sequence of CD86 mutant 1040 conjugated to an anti-CD40 antibody as part of a bispecific molecule (human) (chain, as listed by the source limits assumed): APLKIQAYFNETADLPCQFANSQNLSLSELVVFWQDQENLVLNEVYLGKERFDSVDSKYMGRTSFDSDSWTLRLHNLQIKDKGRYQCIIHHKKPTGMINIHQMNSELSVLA

As for “CTLA4-Fc (Fitzgerald, #30R-CD152) (from UniProt P16410 38-152) (Fc fusion)”, the IC50 (read off the curve) was determined as 1 µg/mL.

Take “soluble murine CTLA-4 (R&D systems) (from UniProt P09793 36-162) (receptor)”: the IC50 (read off the curve) came to 0.8 µg/mL.
